± gives the uncertainty stated by the source.
Assay: amyloid nucleation score (Sup35N fusion, yeast selection) (log enrichment); library NNK3; higher = more nucleation; inactive = no reads after selection
In short: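 Using DiMSum, nucleation scores were taken as the log enrichment of output over input reads, centred on the mode score of non-aggregating sequences. The input and output reads came from Illumina sequencing of plasmid inserts, with sequences under 100 input reads excluded. The yeast were psi-negative, expressed Sup35N fused to peptides of 20 random codons, were induced with 100 μM copper sulfate for 24 hours, and were grown 7 days at 30°C on medium lacking adenine and uracil.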

Substance | amyloid nucleation score
DIYSDWLFIVLRHLVIRVLS | 0.754 ± 0.12
DKGLGVLRHLNRWIVCTGHD | inactive
DLAFGMSFDWT | inactive
DLDGVPTHSVVERMKTWLDT | inactive
DLFCCCYTLS | 1.03 ± 0.2
DLFLKLSCDSRI | inactive
DLGFWPYFISIMACCWDQKG | 1.15 ± 0.12
DLHLLYKYILFAKLLV | inactive
DLIWWRGAQAVNTLNSGSKR | 0.115 ± 1
DLLTFYFEPSASHSLLRPSG | inactive
DLMLWKNFSLFTRESRGFAN | inactive
DLQRLSNRKSKGLWSGCIGK | inactive
DLTLIWMGGAAM | 0.826 ± 0.22
DLTTFQDMSTCTLWVTSGYT | inactive
DLYIYCFWLDMVITVCKRQK | inactive
DLYQPDS | inactive
DMGRCCSRKLRRRTPYVKGR | inactive
DMSHMIEICFVTNYTKGYVT | inactive
DNCFRKWT | inactive
DNDLQSTKSPLWGVHQANVR | inactive
DNFVY | inactive
DNKVFTLSNQA | inactive
DPGHRGLTDFYSMFRL | inactive
DPSCGECFKA | 0.961 ± 0.1

Substance | amyloid nucleation score
DPVIYRCSLVLLYSERSLPY | inactive
DQVAYRGKSVYSYKCKTRWG | inactive
DRAAMFSNSVQSCICTWMNI | 2.17 ± 0.061
DRWVQAGSHTFTFLWDCERA | inactive
DSISISY | inactive
DSLILWHGDANCSRLGYRGH | inactive
DSNLRLYALTRCHKALHVMS | inactive
DSNVRSFVSMLSVN | inactive
DSPMKLSALSHM | -0.261 ± 0.96
DSPTE | inactive
DSRAGRGMSFLRFNRRSVDE | 0.209 ± 0.38
DSRLE | inactive
DSSKVGFSALVNVSTIA | inactive
DSSLIAGPHVVCSWGLKNFS | inactive
DSYCYVWYKYSNVNVGD | inactive
DTDFIFVNIA | inactive
DTSKNYAIYFGKLGDWSARS | -0.01 ± 0.96
DTVRHLISYRGLGRLHRHTM | inactive
DTYFTVCSLWGPV | 0.999 ± 0.12
DVLRVFLFSSFIILCVGCTY | inactive
DVLWSGSYSSRLPGSIRDCE | inactive
DVNVALIHSDL | inactive
DVPGIGCEGKALRRLGFLLR | inactive
DVRKRSFIYVCNRSLVVPFR | inactive

Substance | amyloid nucleation score
DVTRTCRYGEVYDWTIKIRP | inactive
DVYISKDIRCCYLLKTFLPY | 0.123 ± 0.27
DWNISLNLQDIGRRSLPIFA | inactive
DYKKVGDSLFTVFVFRFINV | inactive
DYMRFTYRIMNCLSDCYITN | inactive
DYQTHLCSEGLALLMRKGSR | inactive
DYVIVCAMEKLNRTVLWAQG | inactive
DYVRKWS | inactive
EADPYIPKSVFGVGFNGHVV | inactive
EAGSPALRR | 0.078 ± 0.7
EAGSVSYWFVATRPLKRACP | inactive
EAHGIQLMMGLFAFR | 1.11 ± 0.15
EALTLTARR | inactive
EATWMSLRYV | inactive
EAVKWPHMILPHCTHMWIYW | inactive
ECAYWMILLGLDYNGHPNRP | inactive
ECENMHDTKDLGLTDGVYII | inactive
ECGFKKR | -0.383 ± 1.3
ECRYRTRR | inactive
ECTDFYGTGTFCFGSWRLSY | 1.76 ± 0.064
ECYTSCVMIYIIHCYKNLRL | inactive
EDFPRALVVRSYQWIYIQNV | 1.24 ± 0.12
EFGPVTPGSEPQALLCTRRL | inactive
EFGWQL | inactive

Substance | amyloid nucleation score
EFKIALRRPINERAESLVTR | inactive
EFKQSSWY | inactive
EFRIKRNR | inactive
EFVFECLYGTLLGRALMLRP | inactive
EFWLISFQSQLSFYCDFRYD | inactive
EGDYECGNTWQNGGSTSEDP | inactive
EGFWMNAPGGRISYSINWIA | inactive
EGIGDVCCKTPEYRSFGWMR | -1.13 ± 2.4
EHRLVDCDVWVR | 2.82 ± 0.077
EHYFSTSIVGCGFFIWWCWG | inactive
EICWKLIGRMRC | inactive
EIKSDICFGFVYTTS | inactive
EIRTRPKRSVVGSRVSMGVS | inactive
EIVRRSSVISCHRT | inactive
EIVVYFEFLCYFVLEVLKSL | inactive
EKDNKLLVICMLV | inactive
EKFNCNVFIANWAK | 0.358 ± 0.36
EKVSYFSNNVVLIVVINRVC | inactive
ELFSVNKCDLALNTCLTVPG | 2.6 ± 0.061
ELGPYLNSLVAHFSRLY | inactive
ELIDKLVT | inactive
ELIWAEGYRKSCKLGPVIS | inactive
ELLCSYTYKIGFQWFC | inactive
ELLVVFEESIVINFLDANIW | 0.674 ± 0.2

Substance | amyloid nucleation score
ELNMAVDAVYCTGSVHKIVF | 1.36 ± 0.13
ELPLSSCNRCGECYGLAIVA | inactive
ELRQFSP | inactive
ELSFPL | inactive
ELSTWLAYYVRLGYWCLIMM | inactive
ELSYDRSKYSINSLWLGIPI | inactive
ELVVLYLYRRASSGWS | inactive
EMFYSVCFIYRIMFT | 1.25 ± 0.089
EMLFPSRICLCIHDVILPRV | inactive
EMLYTLIIVYLVNMYFCTQS | inactive
ENALRLRQVGQILGLNCRIV | inactive
ENERGKKMSLGYGLELAGTG | inactive
ENSEW | inactive
ENVLVVRMDRVLY | inactive
ENYLKVCVASVCPWLLHVRS | -0.079 ± 0.48
EPGDRQARKSFRLSFWAQEV | 0.422 ± 0.21
EPRRLRITCEYTVNRRLSDE | inactive
EPSGNM | inactive
EQLKTRNRKVWV | inactive
EQYRSTTGLESL | -0.2 ± 0.96
ERQFMFYKVTVVIPTSHLCS | inactive
ERSLFAYMYNNGR | inactive
ERSQKWVNF | inactive
ERVRRTV | inactive

Substance | amyloid nucleation score
ESASSYFLY | 0.583 ± 0.24
ESMAFLRSSSLHKFVWTMYR | inactive
ESMLIS | inactive
ESMSHRGAPGRERVLRSNM | inactive
ESQISEN | inactive
ESSFSGLYYDSAM | inactive
ETSVTAHHLGIGVLLRFQQ | inactive
EVGYKTVFPVGIMNDIVMWM | inactive
EVKDAWIMSYSLNYWQRLYM | inactive
EVKFYWKYKGV | 0.561 ± 0.16
EVSSTDL | inactive
EVTSYVVFSFLIFTSMFHCK | -0.464 ± 0.36
EVVAAYHPATDTSDRERKAL | inactive
EVVLFKYVVL | 0.848 ± 0.19
EVYYPDVNLLEPGAVKLGRH | inactive
EWCSMYILSC | inactive
EWFSMIVSHFNI | inactive
EWISLQVKNLTVSTVMLCLE | inactive
EWKVLLPNLLYPSYYAQNR | inactive
EYESMI | inactive
EYHDALEYVVGDKAIFWSGD | inactive
FADYLMKPCRMCLLRDPVYS | inactive
FAFAEERADLWSN | inactive
FAFLWCLDWLNRKRIMSRVE | -1.34 ± 2.5

Substance | amyloid nucleation score
FAGCLGHPLERYVHLAWV | inactive
FAHEVLYSANT | inactive
FAILNFGMSSIIFVCLTCAN | inactive
FALCFKRQIGRVSRVVCHVY | inactive
FAMETLNSSTFRCYHQFYGF | inactive
FANFSILS | inactive
FASRIWSSTITSCHLLSGSL | inactive
FASSDC | inactive
FAYQFRLVDTSLSDF | inactive
FAYVLFATFS | -0.353 ± 1.2
FCDGPGTKY | inactive
FCEGYFWCVI | inactive
FCFYICGLGFY | inactive
FCGAYLVVIAEFL | inactive
FCHLLVMLFYKGPKVFCIVM | inactive
FCHVRMLAISTIYGSSVEVF | inactive
FCIEPR | inactive
FCQSFWLLQLARMPCYVESQ | inactive
